# Assay results from IntAct's records for PubMed 31515488.
# B1: Homeobox protein VENTX (Homo sapiens), O95231 (parent)
# chain: MRLSSSPPRGPQQLSSFGSVDWLSQSSCSGPTHTPRPADFSLGSLPGPGQTSGAREPPQAVSIKEAAGSSNLPAPERTMAGLSKEPNTLRAPRVRTAFTMEQVRTLEGVFQHHQYLSPLERKRLAREMQLSEVQIKTWFQNRRMKHKRQMQDPQLHSPFSGSLHAPPAFYSTSSGLANGLQLLCPWAPLSGPQALMLPPGSFWGLCQVAQEALASAGASCCGQPLASHPPTPGRPSLGPALSTGPRGLCAMPQTGDAF
# partner: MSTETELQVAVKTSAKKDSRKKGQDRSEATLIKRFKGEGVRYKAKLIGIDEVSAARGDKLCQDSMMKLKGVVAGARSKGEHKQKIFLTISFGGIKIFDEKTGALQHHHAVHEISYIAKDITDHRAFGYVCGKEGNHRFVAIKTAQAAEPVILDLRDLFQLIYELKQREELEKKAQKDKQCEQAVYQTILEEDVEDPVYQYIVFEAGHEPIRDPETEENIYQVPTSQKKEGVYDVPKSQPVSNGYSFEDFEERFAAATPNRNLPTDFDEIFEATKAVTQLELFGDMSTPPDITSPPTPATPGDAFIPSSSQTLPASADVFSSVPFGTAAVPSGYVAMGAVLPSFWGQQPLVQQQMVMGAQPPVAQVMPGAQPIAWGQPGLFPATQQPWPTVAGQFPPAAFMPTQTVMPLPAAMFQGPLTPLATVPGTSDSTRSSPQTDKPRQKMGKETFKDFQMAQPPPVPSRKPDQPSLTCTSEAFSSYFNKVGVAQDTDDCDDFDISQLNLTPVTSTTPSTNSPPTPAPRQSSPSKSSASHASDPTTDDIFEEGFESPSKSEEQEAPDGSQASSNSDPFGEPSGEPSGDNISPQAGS
# B2: Protein mab-21-like 3 (Homo sapiens), Q8N8X9 (parent)
# chain: MKYLTVGDLEDCLLNKVDLRRQQISQAVEEVQKVVHHLTTNISNQDIRFQAVPYSDTYNENIKVLAPSQFLVTVPIKGLAGYREAREQHWRYYTLQGTRLPCPLRDPEGLQQWLEVEQFMKSLWQWHETDVNIDGDIVPAKVLLVFRKLVENAVRTCHLSGKVSLLGNRSAVWVAVETSAYQVELELVPAVEIPTTWSKKARWPRCLQRWPSQERVECIKSFGFNLLACSNYHWQLSFLRAEQVLLEQLDEDGGCRRKCFQVMRHLKEDIWCPGNRPVITSHHLQTVLFWTCEKYPHFKDWQVFSKAFLRLVRKLHKCVSQHFLKHYFVRNSNLFQCTNPTELDTVAQKLATFLKNPQIGPP
# partner: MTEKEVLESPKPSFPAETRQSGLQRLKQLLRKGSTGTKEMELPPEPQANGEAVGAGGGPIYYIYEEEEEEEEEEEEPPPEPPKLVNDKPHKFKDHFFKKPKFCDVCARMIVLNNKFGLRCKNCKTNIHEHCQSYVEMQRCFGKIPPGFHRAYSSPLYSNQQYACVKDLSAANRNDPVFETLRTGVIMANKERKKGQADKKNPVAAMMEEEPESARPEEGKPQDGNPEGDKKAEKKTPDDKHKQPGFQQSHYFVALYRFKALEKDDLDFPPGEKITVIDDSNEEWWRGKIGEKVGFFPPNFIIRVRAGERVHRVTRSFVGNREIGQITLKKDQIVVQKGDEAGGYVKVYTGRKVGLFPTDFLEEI
# B3: Protein FAM9B (Homo sapiens), Q8IZU0 (parent)
# chain: MAAWGKKHAGKDPVRDECEERNRFTETREEDVTDEHGEREPFAETDEHTGANTKKPEDTAEDLTAKRKRMKMDKTCSKTKNKSKHALRKKQLKRQKRDYIHSLKLLNVLEEYITDEQKEEEEEEGEEEELIRIFQEQQKKWQQYRSVRRERLKEMKLLRDQFVKALEDFEDLCDRVFSDEDSELDN
# partner: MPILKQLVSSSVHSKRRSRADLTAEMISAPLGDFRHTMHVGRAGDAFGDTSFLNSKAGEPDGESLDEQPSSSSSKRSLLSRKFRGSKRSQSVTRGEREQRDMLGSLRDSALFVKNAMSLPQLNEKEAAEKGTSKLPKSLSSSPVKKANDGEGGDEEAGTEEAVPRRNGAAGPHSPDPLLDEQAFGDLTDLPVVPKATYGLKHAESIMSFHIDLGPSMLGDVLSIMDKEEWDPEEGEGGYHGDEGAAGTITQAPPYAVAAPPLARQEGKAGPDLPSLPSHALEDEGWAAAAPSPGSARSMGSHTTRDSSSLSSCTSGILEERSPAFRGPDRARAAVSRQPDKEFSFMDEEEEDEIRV
# B4: Poliovirus receptor (Homo sapiens), P15151 (parent)
# chain: MARAMAAAWPLLLVALLVLSWPPPGTGDVVVQAPTQVPGFLGDSVTLPCYLQVPNMEVTHVSQLTWARHGESGSMAVFHQTQGPSYSESKRLEFVAARLGAELRNASLRMFGLRVEDEGNYTCLFVTFPQGSRSVDIWLRVLAKPQNTAEVQKVQLTGEPVPMARCVSTGGRPPAQITWHSDLGGMPNTSQVPGFLSGTVTVTSLWILVPSSQVDGKNVTCKVEHESFEKPQLLTVNLTVYYPPEVSISGYDNNWYLGQNEATLTCDARSNPEPTGYNWSTTMGPLPPFAVAQGAQLLIRPVDKPINTTLICNVTNALGARQAELTVQVKEGPPSEHSGISRNAIIFLVLGILVFLILLGIGIYFYWSKCSREVLWHCHLCPSSTEHASASANGHVSYSAVSRENSSSQDPQTEGTR
# partner: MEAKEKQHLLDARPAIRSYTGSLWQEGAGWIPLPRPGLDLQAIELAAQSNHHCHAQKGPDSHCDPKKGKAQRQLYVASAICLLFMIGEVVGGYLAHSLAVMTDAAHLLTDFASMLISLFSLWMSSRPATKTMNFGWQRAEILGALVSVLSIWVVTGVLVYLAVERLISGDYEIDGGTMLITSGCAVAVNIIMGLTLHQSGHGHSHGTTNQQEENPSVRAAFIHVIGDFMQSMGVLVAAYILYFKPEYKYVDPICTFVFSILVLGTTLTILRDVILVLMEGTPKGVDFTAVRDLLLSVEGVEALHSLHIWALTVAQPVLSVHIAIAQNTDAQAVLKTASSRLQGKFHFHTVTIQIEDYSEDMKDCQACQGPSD
# B5: Adiponectin (Homo sapiens), Q15848 (parent)
# chain: MLLLGAVLLLLALPGHDQETTTQGPGVLLPLPKGACTGWMAGIPGHPGHNGAPGRDGRDGTPGEKGEKGDPGLIGPKGDIGETGVPGAEGPRGFPGIQGRKGEPGEGAYVYRSAFSVGLETYVTIPNMPIRFTKIFYNQQNHYDGSTGKFHCNIPGLYYFAYHITVYMKDVKVSLFKKDKAMLFTYDQYQENNVDQASGSVLLHLEVGDQVWLQVYGEGERNGLYADNDNDSTFTGFLLYHDTN
# B6: Isoform 1 of Protein quaking (Homo sapiens), Q96PU8-1 (parent)
# chain: MVGEMETKEKPKPTPDYLMQLMNDKKLMSSLPNFCGIFNHLERLLDEEISRVRKDMYNDTLNGSTEKRSAELPDAVGPIVQLQEKLYVPVKEYPDFNFVGRILGPRGLTAKQLEAETGCKIMVRGKGSMRDKKKEEQNRGKPNWEHLNEDLHVLITVEDAQNRAEIKLKRAVEEVKKLLVPAAEGEDSLKKMQLMELAILNGTYRDANIKSPALAFSLAATAQAAPRIITGPAPVLPPAALRTPTPAGPTIMPLIRQIQTAVMPNGTPHPTAAIVPPGPEAGLIYTPYEYPYTLAPATSILEYPIEPSGVLGAVATKVRRHDMRVHPYQRIVTADRAATGN
# B7: Notch homolog 2 N-terminal-like protein A (Homo sapiens), Q7Z3S9 (parent)
# chain: MCVTYHNGTGYCKCPEGFLGEYCQHRDPCEKNRCQNGGTCVAQAMLGKATCRCASGFTGEDCQYSTSHPCFVSRPCLNGGTCHMLSRDTYECTCQVGFTGKECQWTDACLSHPCANGSTCTTVANQFSCKCLTGFTGQKCETDVNECDIPGHCQHGGTCLNLPGSYQCQCLQGFTGQYCDSLYVPCAPSPCVNGGTCRQTGDFTFECNCLPETVRRGTELWERDREVWNGKEHDEN
# partner: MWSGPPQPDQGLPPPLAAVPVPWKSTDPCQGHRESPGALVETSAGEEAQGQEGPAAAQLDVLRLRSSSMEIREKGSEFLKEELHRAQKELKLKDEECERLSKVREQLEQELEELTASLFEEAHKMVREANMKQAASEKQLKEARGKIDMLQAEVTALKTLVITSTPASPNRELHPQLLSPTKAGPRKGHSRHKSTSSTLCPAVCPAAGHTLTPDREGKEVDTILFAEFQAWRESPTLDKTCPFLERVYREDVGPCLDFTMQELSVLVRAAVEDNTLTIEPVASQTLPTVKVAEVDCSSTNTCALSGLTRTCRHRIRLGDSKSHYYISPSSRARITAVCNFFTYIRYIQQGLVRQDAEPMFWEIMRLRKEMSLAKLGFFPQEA
# B8: Phospholipase A and acyltransferase 4 (Homo sapiens), Q9UL19 (parent)
# chain: MASPHQEPKPGDLIEIFRLGYEHWALYIGDGYVIHLAPPSEYPGAGSSSVFSVLSNSAEVKRERLEDVVGGCCYRVNNSLDHEYQPRPVEVIISSAKEMVGQKMKYSIVSRNCEHFVTQLRYGKSRCKQVEKAKVEVGVATALGILVVAGCSFAIRRYQKKATA
# Variants of: B1
# Details: with dab1_human DAB1, O75553
row,Variant,effect of a mutation on the interaction
1,A226E,disrupting interaction strength
2,M251V,with no effect

# Variants of: B2
# Details: with stac3_human STAC3, Q96MF2
row,Variant,effect of a mutation on the interaction
1,T338A,with no effect

# Variants of: B3
# Details: with borg4_human CDC42EP4, Q9H3Q1
row,Variant,effect of a mutation on the interaction
1,R23H,with no effect

# Variants of: B4
# Details: with znt2_human SLC30A2, Q9BRI3
row,Variant,effect of a mutation on the interaction
1,A67T,with no effect

# Variants of: B5
# Details: with sgta_human SGTA
# Target sequence in this assay (O43765 whole entry): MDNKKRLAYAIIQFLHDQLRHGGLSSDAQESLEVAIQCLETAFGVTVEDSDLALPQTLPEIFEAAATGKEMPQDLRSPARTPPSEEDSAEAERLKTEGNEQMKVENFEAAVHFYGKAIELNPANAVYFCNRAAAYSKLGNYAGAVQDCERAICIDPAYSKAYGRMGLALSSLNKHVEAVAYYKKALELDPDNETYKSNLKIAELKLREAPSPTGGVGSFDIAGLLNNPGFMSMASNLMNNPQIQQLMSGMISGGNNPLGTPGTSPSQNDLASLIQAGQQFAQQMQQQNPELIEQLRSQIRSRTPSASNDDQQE
row,Variant,effect of a mutation on the interaction
1,Y111H,with no effect

# Variants of: B6
# Details: with hnrpk_human HNRNPK
row,Variant,effect of a mutation on the interaction
1,R336Q,with no effect

# Variants of: B6
# Details: with fubp3_human FUBP3, Q96I24
# Chain of fubp3_human FUBP3, Q96I24 (Q96I24 whole entry): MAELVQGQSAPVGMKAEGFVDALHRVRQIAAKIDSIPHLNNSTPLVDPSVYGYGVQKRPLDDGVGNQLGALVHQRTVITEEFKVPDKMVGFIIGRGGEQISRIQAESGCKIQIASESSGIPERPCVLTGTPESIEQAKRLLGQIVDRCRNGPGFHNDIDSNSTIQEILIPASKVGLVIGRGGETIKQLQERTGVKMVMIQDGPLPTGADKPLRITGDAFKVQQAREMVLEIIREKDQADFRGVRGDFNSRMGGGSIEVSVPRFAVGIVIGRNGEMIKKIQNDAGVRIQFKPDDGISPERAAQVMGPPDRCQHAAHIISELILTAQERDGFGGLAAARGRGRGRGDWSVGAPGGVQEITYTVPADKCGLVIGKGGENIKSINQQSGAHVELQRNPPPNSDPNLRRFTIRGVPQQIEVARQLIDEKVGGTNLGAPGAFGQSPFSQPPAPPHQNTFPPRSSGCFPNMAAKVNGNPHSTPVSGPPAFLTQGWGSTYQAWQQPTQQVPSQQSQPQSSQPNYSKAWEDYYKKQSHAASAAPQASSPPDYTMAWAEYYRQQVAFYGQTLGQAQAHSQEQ
row,Variant,effect of a mutation on the interaction
1,R336Q,with no effect

# Variants of: B6
# Details: with rbpms_human RBPMS
row,Variant,effect of a mutation on the interaction
1,R336Q,with no effect

# Variants of: B7
# Details: with RAB3IL1, Q8TBN0
row,Variant,effect of a mutation on the interaction
1,R74Q,with no effect
2,A115T,with no effect

# Variants of: B8
# Details: with sgta_human SGTA
# Target sequence in this assay (O43765 whole entry): as the sequence (O43765 whole entry) above
row,Variant,effect of a mutation on the interaction
1,T141M,disrupting interaction strength
